The data set concerns diabetic rats. The experiment in a line: Insulin delivery through catheter and implanted pocket in diabetic rats, plasmatic glycaemia. In kind it is in vivo, rat. As for the experimental part:
Rapid Insulin was injected through a catheter linked to a pocket as disclosed in the examples of WO 2015/086550 (three layer, including one of non-woven polymer).
The pocket was implanted in the intraperitoneal cavity of rats.

With insulin, where the note is “inferred from glycaemia kinetics, pocket implanted intraperitoneally”, the “diffusion of insulin out of the device” value is given as “instant diffusion”. For the setting “insulin injected through catheter linked to pocket implanted in the intraperitoneal cavity (FIG. 2, circles)”, the plasmatic glycaemia entry is “rapid decrease of plasmatic glycaemia”.

The values are drawn from patent US20190255310A1, “KIT FOR IN SITU DELIVERY OF A COMPOUND OF INTEREST” (Defymed, priority 2016, published 2019).
